Assay [1] deals with RbdA-PDE (RbdA 549-797), phosphodiesterase domain of the regulator of biofilm dispersal RbdA (Pseudomonas aeruginosa strain PAO1). Briefly: SEC; apparent molecular weight on a calibrated size exclusion system; purified proteins in solution. A general note: In gel filtration, larger molecules generally elute earlier.
Assay [2] concerns the target RbdA-DGC-PDE (RbdA 376-797), linked cyclase-phosphodiesterase double domain of RbdA (Pseudomonas aeruginosa strain PAO1). The assay is described as above.

This is an account of results in article PMC11372557.

One may read the stoichiometry N as a count of units in the complex or per binding partner.

On to “RbdA-PDE (RbdA 549-797), phosphodiesterase domain of the regulator of biofilm dispersal RbdA (domain or fragment)”, for which, in assay [1], the stoichiometry N is 2.
As for “RbdA-DGC-PDE (RbdA 376-797), linked cyclase-phosphodiesterase double domain of RbdA (domain or fragment)”, the stoichiometry N in assay [2] amounted to 2.
